Measurements reported in the Human Domainome abundance scans (Beltran et al. 2025).

B1: Intersectin-2, residues 1129 to 1183; numbered along this chain, Q9NZM3 (parent)
chain: VCQVIAMYDYAANNEDELSFSKGQLINVMNKDDPDWWQGEINGVTGLFPSNYVKM

Variants of: B1
Experiment: abundance fitness (aPCA) (normalised: wild type 0, dead -1); higher = more abundant; growth selection in yeast, the domain comes from the species named
Conditions: Homo sapiens

Abundance fitness: each site, then its substitutions
L25: P -0.126; V -0.011; N -0.054; F -0.006; K -0.064; S -0.01; M 0.031; T -0.059; G -0.035; C -0.088; D 0.024; W -0.098; Q -0.089; I 0.006; E 0.057; Y -0.115; H -0.054
D33: C 0.042; T -0.023; P -0.287; V -0.092; R -0.015; L -0.077; G -0.043; M -0.12; I -0.112; H 0.103; A -0.065; F -0.24; W -0.237; S -0.037; E -0.009; N -0.034
S19: D -0.168; H -0.123; I -0.515; K -0.163; R -0.181; P -0.166; N -0.047; M -0.21; E -0.193; G -0.052; C -0.066; L -0.615; F -0.256; Y -0.197; W -0.313; A -0.045; Q -0.217
K31: E 0.006; H -0.148; I 0.029; Y -0.103; Q -0.039; G -0.031; R -0.061; T 0.102; W -0.138; C 0.138; V 0.22; F -0.039; D -0.044; A 0.173
W36: N -0.023; A -0.092; R -0.019; S -0.1; G -0.626; K 0.045; H -0.054; Y -0.054; P -1.03; C -0.003; I -0.159; E -0.108; T 0.011; M 0.002; D -0.323; L -0.029; V -0.052
V28: Q -1.04; I 0.006; G -0.937; C -0.077; L -0.048; K -1.04; P -0.882; A -0.371; F -0.778; S -0.94; N -1.01; E -0.996; W -0.963; Y -0.87; R -0.718; M -0.155
D35: Y -0.075; K -0.071; C -0.167; S -0.035; V -0.04; L -0.029; I 0.03; H -0.048; M -0.1; F -0.085; R -0.021; P -0.39; Q -0.099; W -0.145; N -0.032
I26: N -0.719; Y -0.657; E -0.789; V -0.089; A -0.961; F -0.085; G -0.821; P -0.925; L -0.065; W -0.971; D -0.857; H -1.07; K -0.972; T -0.88; R -0.951; M -0.232
Q24: F -0.015; W -0.038; D 0.022; N -0.05; K -0.118; Y -0.153; H -0.154; R -0.128; L -0.199; C -0.151; G -0.073; V -0.078; S -0.073; E -0.007; M -0.051
M29: H -0.06; S -0.039; Q -0.125; K -0.075; E -0.006; A -0.016; N -0.187; Y -0.18; D -0.077; R -0.014; L -0.013; T 0.014; C -0.022; W -0.053; V -0.001; P -0.496; G -0.065; I -0.036
K22: Y -0.172; T -0.064; N -0.025; S -0.084; P -0.154; M -0.118; V -0.074; L -0.146; I -0.063; D -0.22; E -0.036; C -0.061; G -0.097; H -0.146; Q 0.033; F -0.164; A -0.027; W -0.362; R -0.121
W37: V -0.78; R -0.787; Q -0.699; I -0.615; P -0.582; T -0.854; N -0.771; L -0.384; G -0.826; E -0.928; D -0.865; S -0.805; M -0.283; A -0.857; F -0.156; C -0.516; K -1.03
L18: N -0.783; R -0.979; S -0.854; G -0.861; D -1.04; C -0.378; T -0.778; Y -0.966; W -0.841; F -0.2; P -0.895; K -0.647; Q -0.704; V -0.092; M -0.046; H -0.512; I -0.001
F20: A -0.998; L -0.079; D -1.03; S -0.871; P -0.919; I -0.163; V -0.357; H -0.988; Q -0.844; Y -0.497; T -0.88; K -0.921; M -0.26; R -0.98; C -0.596
N27: Q 0.012; C -0.046; H -0.089; G -0.122; V -0.098; E 0.039; W -0.123; L -0.07; Y -0.081; R -0.037; S -0.05; P -0.351; I -0.015; T -0.043; M -0.02; F -0.112; K -0.052
G23: Y -0.047; V -0.903; P -1.06; D -0.016; S -0.07; K -0.103; N 0; M -0.262; H 0.023; Q -0.181; W -0.201; I -0.866; R -0.195; A -0.161; C -0.247; T -0.21; E -0.098
N30: E -0.046; W -0.16; C 0.005; G -0.04; L -0.021; F -0.09; Q 0.019; I -0.135; T -0.034; D -0.087; Y -0.117; P -0.688; M -0.025; R -0.019; K -0.001; S -0.028; V -0.045; A -0.002; H -0.01
P34: Q 0.029; C -0.195; A 0.005; N 0.036; M -0.015; L -0.079; I -0.071; R -0.018; Y -0.147; T -0.009; D -0.01; K 0.055; G -0.028; W -0.161; V -0.033; S -0.013; E 0.03; H -0.194
D32: F -0.205; K -0.007; M -0.043; N 0.021; L -0.11; A -0.042; Q 0.046; S -0.063; C -0.089; T -0.075; Y -0.077; W -0.086; R -0.049; P 0.084; H -0.18
S21: H 0.082; M -0.05; I -0.045; R -0.02; C -0.053; F -0.117; A 0.001; V -0.032; P -0.04; K 0.002; L -0.037; Q -0.137; G -0.039; D -0.021; T -0.028; N -0.006; W -0.125; Y -0.12; E -0.084
